# Experimental data as given in article PMC3798605 (2013).
# Assays:
# [1] = biological target: T1, TbPIP39 wild type (Trypanosoma brucei); assay: SPR; 2 mM citrate, steady state
# [2] = biological target: T1, TbPIP39 wild type; assay: SPR; 2 mM citrate
binder,measurement,setting,value
TbPTP1 (enzyme) MSTAKSFPMAQLSTRAQYSRMQREFVQLQRQENPRNINFTTSLKNRHKNRYLDILANEETIYPPVLKAVGAQPGRYPYINGNLIDLDLPHTFVACQAPVPQGVPDFLETLSEKKVDLVVMLTKLREGGVLKAERYWPEEEEDSLSFPESGHDAIKVTRDAEASYEVDAELDIVRRPLVIHVPGKPMHRVLQVQYVGWPDHGVPESAASFDELLSVIKNCVTTSPILVHCSAGIGRTGTLIGAYAALLHIERGILTDSTVYSIVAAMKQKRFGMVQRLEQYAVIYMTVLGRLGVDISGLVSTLNLKA,Kd,[1],50.8 µM
same,Kd,[2],42 µM
same,koff,[2],0.05 s⁻¹
